Biological target: human TrkA receptor expressed in transfected 3T3 fibroblast cells (human), P04629
Test: cell-based or functional assay

Sequence of human TrkA receptor expressed in transfected 3T3 fibroblast cells (human), P04629 (P04629 33-796): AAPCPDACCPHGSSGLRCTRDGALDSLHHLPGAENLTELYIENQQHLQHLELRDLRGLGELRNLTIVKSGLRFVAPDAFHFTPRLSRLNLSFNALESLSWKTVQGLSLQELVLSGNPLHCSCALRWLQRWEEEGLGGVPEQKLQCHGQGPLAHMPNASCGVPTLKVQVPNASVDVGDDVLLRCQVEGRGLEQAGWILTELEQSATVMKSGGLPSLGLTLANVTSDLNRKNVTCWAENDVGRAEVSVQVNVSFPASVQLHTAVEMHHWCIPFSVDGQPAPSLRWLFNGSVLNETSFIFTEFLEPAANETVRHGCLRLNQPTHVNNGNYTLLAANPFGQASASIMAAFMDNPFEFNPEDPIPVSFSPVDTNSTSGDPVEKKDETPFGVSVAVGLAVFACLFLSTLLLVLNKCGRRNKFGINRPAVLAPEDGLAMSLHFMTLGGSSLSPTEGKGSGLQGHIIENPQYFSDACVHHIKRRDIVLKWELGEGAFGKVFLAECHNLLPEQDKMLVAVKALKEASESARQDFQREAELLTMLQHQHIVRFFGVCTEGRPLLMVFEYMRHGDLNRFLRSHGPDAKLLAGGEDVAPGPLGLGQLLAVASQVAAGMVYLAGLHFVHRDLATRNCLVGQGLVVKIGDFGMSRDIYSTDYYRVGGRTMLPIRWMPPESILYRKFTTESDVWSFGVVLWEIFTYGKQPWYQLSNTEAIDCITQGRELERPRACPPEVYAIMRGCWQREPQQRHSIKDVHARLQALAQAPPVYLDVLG

| % Max Inhibition, pTrkA | % Max stimulation, pTrkA | EC50 (nM), pTrkA | IC50 (nM), pTrkA | pTrkA counts per second, 0.1 pM mAb, no NGF (counts per second) | pTrkA counts per second, 1 pM mAb, no NGF (counts per second) | pTrkA counts per second, 10 pM mAb, no NGF (counts per second) | pTrkA counts per second, 100 pM mAb, no NGF (counts per second) | pTrkA counts per second, 1 nM mAb, no NGF (counts per second) | pTrkA counts per second, 10 nM mAb, no NGF (counts per second) | pTrkA counts per second, 100 nM mAb, no NGF (counts per second) | pTrkA counts per second, 1 uM mAb, no NGF (counts per second) | pTrkA counts per second, NGF +0.1 pM mAb (counts per second) | pTrkA counts per second, NGF +1 pM mAb (counts per second) | pTrkA counts per second, NGF +10 pM mAb (counts per second) | pTrkA counts per second, NGF +100 pM mAb (counts per second) | pTrkA counts per second, NGF +1 nM mAb (counts per second) | pTrkA counts per second, NGF +10 nM mAb (counts per second) | pTrkA counts per second, NGF +100 nM mAb (counts per second) | pTrkA counts per second, NGF +1 uM mAb (counts per second) | Binder | also measured |
| --- | --- | --- | --- | --- | --- | --- | --- | --- | --- | --- | --- | --- | --- | --- | --- | --- | --- | --- | --- | --- | --- |
| 66% | 27% | 0.28 nM | 0.12 nM | 277000 | 398000 | 335000 | 486000 | 935000 | 1.16e+06 | 994000 | 1.02e+06 | 2.56e+06 | 2.79e+06 | 2.68e+06 | 2.01e+06 | 1.35e+06 | 1.2e+06 | 1.44e+06 | 971000 | mAb D (antibody, human IgG1, kappa) heavy: EVQLVESGGGLVKPGGSLRLSCAASGFTFSGVSINWVRQAPGKGLEWVSSETTSSGTIYYADSVKGRFTISRDNAKNSLYLQMNSLRAEDTAVYYCARSYYYGMDVWGQGTTVTVSSASTKGPSVFPLAPSSKSTSGGTAALGCLVKDYFPEPVTVSWNSGALTSGVHTFPAVLQSSGLYSLSSVVTVPSSSLGTQTYICNVNHKPSNTKVDKRVEPKSCDKTHTCPPCPAPEAEGAPSVFLFPPKPKDTLMISRTPEVTCVVVDVSHEDPEVKFNWYVDGVEVHNAKTKPREEQYNSTYRVVSVLTVLHQDWLNGKEYKCKVSNKALPSSIEKTISKAKGQPREPQVYTLPPSREEMTKNQVSLTCLVKGFYPSDIAVEWESNGQPENNYKTTPPVLDSDGSFFLYSKLTVDKSRWQQGNVFSCSVMHEALHNHYTQKSLSLSPGK light: DIVMTQTPLSSPVTLGQPASISCRSSQSLVHRAGNTYLSWLQQRPGQPPRLLIYKISNRFSGVPDRFSGSGAGTDFTLKISRVEAEDVGVYYCMQARQFPLTFGGGTKVEIKRTVAAPSVFIFPPSDEQLKSGTASVVCLLNNFYPREAKVQWKVDNALQSGNSQESVTEQDSKDSTYSLSSTLTLSKADYEKHKVYACEVTHQGLSSPVTKSFNRGEC |  |
| 57% | 31% | 0.29 nM | 0.48 nM | 178000 | 181000 | 194000 | 264000 | 487000 | 600000 | 605000 | 483000 | 1.85e+06 | 2.19e+06 | 2.76e+06 | 2.78e+06 | 838000 | 800000 | 739000 | 630000 | mAb E (antibody, human IgG1, kappa) heavy: EVQLVESGGGLVKPGGSLRLSCAASGFTFSGVSINWVRQAPGKGLEWVSSETTSSGTIYYADSVKGRFTISRDNAKNSLYLQMNSLRAEDTAVYYCARSYYYGMDVWGQGTTVTVSSASTKGPSVFPLAPSSKSTSGGTAALGCLVKDYFPEPVTVSWNSGALTSGVHTFPAVLQSSGLYSLSSVVTVPSSSLGTQTYICNVNHKPSNTKVDKRVEPKSCDKTHTCPPCPAPEAEGAPSVFLFPPKPKDTLMISRTPEVTCVVVDVSHEDPEVKFNWYVDGVEVHNAKTKPREEQYNSTYRVVSVLTVLHQDWLNGKEYKCKVSNKALPSSIEKTISKAKGQPREPQVYTLPPSREEMTKNQVSLTCLVKGFYPSDIAVEWESNGQPENNYKTTPPVLDSDGSFFLYSKLTVDKSRWQQGNVFSCSVMHEALHNHYTQKSLSLSPGK light: DIVMTQTPLSSPVTLGQPASISCRSSQSLVHRQGNTYLSWLQQRPGQPPRLLIYKISNRFSGVPDRFSGSGAGTDFTLKISRVEAEDVGVYYCMQARQFPLTFGGGTKVEIKRTVAAPSVFIFPPSDEQLKSGTASVVCLLNNFYPREAKVQWKVDNALQSGNSQESVTEQDSKDSTYSLSSTLTLSKADYEKHKVYACEVTHQGLSSPVTKSFNRGEC | % Inh., Human pTrkA: 56% |

Source: patent US20190263932A1
